Experimental data reported in patent EP4644426A1 (Gan & Lee Pharmaceuticals Co., Ltd., dated 2025).
Where two headings read alike, the source gives them in different places.

Columns and labels:
[1] = target: human FXIa factor (human) (UniProt P03951); assay: Biacore 8K (SPR), human FXIa in 2-fold dilution series
[2] = target: human FXIa factor (human) (UniProt P03951); assay: cell-based or functional assay
[3] = target: human FXIa factor (human) (UniProt P03951); assay: cell-based or functional assay; remark: listed apart in the source
[4] = target: human FXIa factor (human) (UniProt P03951); assay: cell-based or functional assay; remark: listed apart in the source
[5] = target: T1, human FXIa factor (human, UniProt P03951 19-625); assay: cell-based or functional assay
[6] = target: T1, human FXIa factor; assay: Biacore 8K (SPR), human FXIa in 2-fold dilution series
[7] = target: T1, human FXIa factor; assay: cell-based or functional assay; remark: listed apart in the source
[8] = target: T1, human FXIa factor; assay: cell-based or functional assay; remark: listed apart in the source

Q: Which Kd [1] does the source give for MAA868 (antibody) here?
A: Its Kd is 0.00717 nM.

Q: And the koff [1]?
A: Its koff is 8.48e-06 s⁻¹.

Q: What about the kon [1] of the same molecule?
A: The kon was 1.18e+06 M⁻¹ s⁻¹.

Q: And the FXIa Kit Activity Assay (nM), IC50 (First Batch) [2]?
A: The FXIa Kit Activity Assay (nM), IC50 (First Batch) was 11.2 nM.

Q: What about the FXIa Kit Activity Assay (nM), IC50 (Second Batch) [2] of the same molecule?
A: The FXIa Kit Activity Assay (nM), IC50 (Second Batch) was 11.7 nM.

Q: And the FXIa Kit Activity Assay (nM), IC50 (Third Batch) [2]?
A: Its FXIa Kit Activity Assay (nM), IC50 (Third Batch) is 13.3 nM.

Q: What about the FXIa kit Activity Assay (nM), IC50 [2] of the same molecule?
A: The FXIa kit Activity Assay (nM), IC50 was 28.9 nM.

Q: And the IC50(nM) from S2366 Assay [2]?
A: Its IC50(nM) from S2366 Assay is 67.3 nM.

Q: What about the IC50(nM) from S2366 assay (First Batch) [2] of the same molecule?
A: The IC50(nM) from S2366 assay (First Batch) was 118 nM.

Q: What about the IC50(nM) from S2366 assay (Fourth Batch) [2] of the same molecule?
A: Its IC50(nM) from S2366 assay (Fourth Batch) is 64.7 nM.

Q: And the IC50(nM) from S2366 assay (Second Batch) [2]?
A: Its IC50(nM) from S2366 assay (Second Batch) is 83.6 nM.

Q: What about the IC50(nM) from S2366 assay (Third Batch) [2] of the same molecule?
A: The IC50(nM) from S2366 assay (Third Batch) was 106 nM.

Q: What about the OD405nm, S2366 activity assay, antibody at 20µg/mL [2] of the same molecule?
A: The OD405nm, S2366 activity assay, antibody at 20µg/mL was 0.449 OD405nm.

Q: And the IC50(nM) from S2366 Assay [3]?
A: Its IC50(nM) from S2366 Assay is 44.9 nM.

Q: What about the FXIa kit Activity Assay (nM), IC50 [4] of the same molecule?
A: Its FXIa kit Activity Assay (nM), IC50 is 12.7 nM.

B1: 11E8-sy (antibody, V domains shown)
VH: EVKLQESGPELVKTGASVKISCKASGYSFTGYFMNWVKQSHGKSLEWIGFINCYNGATSYNQKFKGKATFTVDASSSSAYMQFNSLTSEDSAVYYCARTISTGDSFDYWGQGSTLTVSS
VL: DIVMTQSTSYLSVSLGGRVTITCKASDHINNWLAWYQQKPGDAPSLLISGASRLETGVPSRFSGSGSGKDYTLSITSLQTEDVATYYCQQYWTTPFTFGSGTKLEIK
Q: How did the “OD405nm, S2366 activity assay, antibody at 20µg/mL” value (from here on “OD405nm, S2366 activity assay”) [5] turn out when B1 was run?
A: The value was 0.294 OD405nm.

B2: 17E10-sy (antibody, V domains shown)
VH: EVQLEESGPGLVKPSQSLSLTCSVTGYSITSGFYWNWIRQFPGNKLEWMGYISFDGRHNYNPSLKNRFSITRDTSKNQFFLKLTSVTAEDTATYYCARDLITTVYYYPMDYWGQGTSVTVSS
VL: DIVMTQSHKFMSTSVGDRVSITCKASQDVGTAVDWYQQKTGQSPKLLIYWASTRHTGVPDRFTGSGSGTDFTLTISNVQSEDLADYFCQQYSNYPLTFGAGTKLELK
Q: With B2 as the molecule, how does the “OD405nm, S2366 activity assay” value [5] read?
A: The value was 0.189 OD405nm.

B3: 17E3C10-sy (antibody, V domains shown)
VH: QVKLQESGPELRKPGETVYISCKASGYTFTNYGVNWVKQAPGKGLKWMGWINTYTGEPIYADDFKGRFAFSLETSANTAYLQISNLTNEDTATYFCARLYLYGNTYDYYAMDYWGQGTSVTVSS
VL: DIVLTQTPSSMYASLGERVTITCKASQDISTYLSWFQQKPGKSPKTLIYRANRLIDGVPSRFSGSGSGQDFSLTISSLEYEDMGVYYCLQYDDLNTFGGGTKLEIK
Q: With B3 as the molecule, how does the “OD405nm, S2366 activity assay” value [5] read?
A: Its value is 0.414 OD405nm.

B4: humanized antibody 29E10C4-1 (antibody, human IgG1, kappa, V domains shown)
VH: QVQLVQSGAEVKKPGSSVKVSCKASGGTFSDYFIEWVRQAPGQGLEWMGVINPGNDVTNYNEKFKGRVTITADKSTSTAYMELSSLRSEDTAVYYCARSAGNYENSMDFWGQGTTVTVSS
VL: EIVLTQSPATLSLSPGERATLSCKASQSVSNDVGWYQQKPGQAPRLLIYYTSNRYTGIPARFSGSGSGTDFTLTISSLEPEDFAVYYCQQDYHFPLTFGGGTKVEIKR
notes: 29E10C4-1 is the only humanized form of that clone
Q: Which Kd [6] does the source give for B4 here?
A: Its Kd is 0.00145 nM.

Q: And the koff [6]?
A: The koff was 1.96e-05 s⁻¹.

Q: What about the kon [6] of the same molecule?
A: The kon was 1.35e+07 M⁻¹ s⁻¹.

Q: And the “IC50 (nM) from S2366 Assay” value [7]?
A: Its value is 24.5 nM.

Q: What about the “FXIa kit Activity Assay (nM), IC50” value [8] of the same molecule?
A: The value was 0.545 nM.

B5: 29E10C4-sy (antibody, V domains shown)
VH: QVKLEESGAELVRPGTSVKVSCKASGYAFTDYFIEWIKQRPGQGLEWIGVINPGNDVTNYNEKFKGKATLTVDKSSTTAYMQLSSLTSDDSAVYFCTRSAGNYENSMDFWGQGTSVTVSS
VL: DIVLTQSPKFLLVSAGDRVTITCKASQSVSNDVGWYQQKPGQSPKLLIYYTSNRYTGVPDRFTGSGYGTDFTFTISSVQAEDLAVYFCQQDYHFPLTFGAGTKLELK
Q: How did the “OD405nm, S2366 activity assay” value [5] turn out when B5 was run?
A: Its value is 0.198 OD405nm.

Q: What about the “FXIa kit Activity Assay (nM), IC50” value [8] of the same molecule?
A: The value was 0.248 nM.
